According to patent publication EP1832653A1:

Molecular target: monoclonal antibody M75 (MAb M75), secreted from the hybridoma VU-M75, ATCC HB 11128
Assay: competition ELISA: peptide in solution against immobilized GST-MN for M75

- IC50: 1 ng/mL
Binder: GGSSGEDDPLGEEDLPSEEDSP [oligopeptide … (aa 51-72) [SEQ ID NO: 104]]
